PMC7255924

Molecular target: P1 adhesin (AgI/II, SpaP, PAc) A3VP1 polypeptide (UniProt P23504)
Experiment: ITC
Details: pH 5; 25°C; 100 mM NaCl; pH 5: 10 mM MES; pH 6: 50 mM sodium phosphate

## P1 adhesin (AgI/II, SpaP, PAc) C3 domain
  KD: 35.2 ± 7.0 µM
